Test results as given in patent publication US20240141038A1 (SHANGHAI QILU PHARMACEUTICAL RESEARCH AND DEVELOPMENT CENTRE, published 2024).

How the values were obtained:
[1] = biological target: T1, Human NKp46 antigen for immunization, screening, and testing (Kactus, NKP-HM146) (human, UniProt O76036 22-255); experiment: ELISA, coated antigen, VHH supernatant, anti-Myc HRP
T1 construct: Bought protein; also called human NKp46 antigen protein; human NKp46 protein
Method: (§1) In order to obtain positive antibodies that can cross-bind to human NKp46 and cynomolgus monkey NKp46, the above libraries were amplified and added into M13K07 helper phage and assembled into bacteriophages. 1×10¹² pfu of immune camel antibody library and immune alpaca antibody library were added thereto, and the phages were incubated with biotinylated human NKp46 protein (8 μg/mL) bound to magnetic beads for 1 h at room temperature. After washing off the unbound bacteriophages with 0.05% PBST, the phages specifically bound to NKp46 were eluted with […] triethylamine, and after gradient dilution of the bacteriophages above, E. coli SS320 in the logarithmic growth phase were infected. After being cultured overnight at 37° C. on plates containing ampicillin, single-clone was picked for IPTG-induced expression, and the supernatant was used for ELISA assay. ELISA plates were coated with […] human NKp46 antigen or cynomolgus monkey NKp46 antigen overnight at 4° C., then washed 3 times with 0.05% PBST and blocked with 5% skim milk at room temperature for 1 h, and washed 3 times with 0.05% PBST. Then 30 µL of induced supernatant was then added into per well, medium were added to negative control wells, the ELISA plates were incubated at room temperature for 1 h, and finally detected with anti-Myc HRP (VHH with his and c-Myc labels were expressed by the induction of IPTG. Sequence clones that had OD450 values of greater than 1.0 for binding to human NKp46 and cynomolgus monkey NKp46 as determined by ELISA, and of which the ratio of OD450 values to that of negative control were greater than 3 were sequenced, thereby obtaining amino acid sequences of 30 variable regions of heavy chain antibodies disclosed in the present disclosure, as shown in Table 2.

[2] = biological target: T2, Cynomolgus monkey NKp46 for immunization, screening, and testing (Kactus, NKP-CM146) (cynomolgus monkey, UniProt Q95JB9 22-254); experiment: as above
T2 construct: Bought protein; also called monkey NKp46 antigen protein; cynomolgus monkey NKp46 antigen
Method: as §1

T2 sequence (Q95JB9 other isoform, or with tags, fused parts or gaps limits assumed): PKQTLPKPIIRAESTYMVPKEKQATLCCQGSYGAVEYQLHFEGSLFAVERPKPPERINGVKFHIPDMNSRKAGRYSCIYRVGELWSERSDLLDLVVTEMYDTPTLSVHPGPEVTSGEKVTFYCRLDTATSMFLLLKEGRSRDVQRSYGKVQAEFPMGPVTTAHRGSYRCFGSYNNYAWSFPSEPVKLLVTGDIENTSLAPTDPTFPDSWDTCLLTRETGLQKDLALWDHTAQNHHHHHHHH
T1 sequence (O76036 other isoform, or with tags, fused parts or gaps limits assumed): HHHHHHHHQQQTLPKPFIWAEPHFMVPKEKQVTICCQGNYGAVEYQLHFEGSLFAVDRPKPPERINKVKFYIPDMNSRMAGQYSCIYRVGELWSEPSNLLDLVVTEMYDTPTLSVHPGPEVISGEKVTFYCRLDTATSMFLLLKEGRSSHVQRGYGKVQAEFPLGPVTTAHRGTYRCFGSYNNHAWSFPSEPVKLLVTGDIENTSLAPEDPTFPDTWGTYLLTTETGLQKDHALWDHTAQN

Row | Binder | OD450 [1] | ratio of OD450 to negative control [1] | OD450 [2] | ratio of OD450 to negative control [2]
1 | NKp46-PC1 VHH (his and c-Myc labels) (VHH, IPTG-induced E. coli supernatant used in the screening ELISA; also called NKp46-PC1 clone supernatant; not shown: his and c-Myc labels) VHH: QVQLVESGGGSVQAGGSLTLSCATSGYTYRTDCMGWFRQAPGKEREGLATIYTSDGRTDYANSVKGRFTISQDNAKNTLYLHMNNLKPEDTAIYYCAADPQYGGVCPSGGWNYWGQGTQVTVSS | > 1 | > 3 | > 1 | > 3
2 | NKp46-PC3 VHH (his and c-Myc labels) (VHH, IPTG-induced E. coli supernatant used in the screening ELISA; also called NKp46-PC3 clone supernatant; not shown: his and c-Myc labels) VHH: DVQLVESGGGSVEAGGSLRLSCAASGYRQRTMGWFRQAPGKAREGVACIYTGPTTTFTDYADSVKGRFTITQDNAKNTVYLQMNSLKPEDTAMYYCAANLAYPLTIIPDTRWGQGTQVTVSS | > 1 | > 3 | > 1 | > 3
3 | NKp46-PA40 VHH (his and c-Myc labels) (VHH, IPTG-induced E. coli supernatant used in the screening ELISA; also called NKp46-PA40 clone supernatant; not shown: his and c-Myc labels) VHH: QVQLVESGGGLVQAGGSLRLSCAASGRTFSRYSMGWFRQAPGKEREFVAAISSSGDVTHYADSAKGRFIISRDNAKNTVSLQVNSVNLEDTAVYYCAASLTARATTVTVHPNGYNYWGQGTQVTVSS | > 1 | > 3 | > 1 | > 3
4 | NKp46-PA3 VHH (his and c-Myc labels) (VHH, IPTG-induced E. coli supernatant used in the screening ELISA; also called NKp46-PA3 clone supernatant; not shown: his and c-Myc labels) VHH: DVQLVESGGGLVQAGGSLRLSCAASGRTFNTIHWFRQAPGKEREFVARIWWIERTTFYAASVKGRFTISRDNAKNMVYLQMNSLKPEDTAVYYCAADARYTGSRRWESDYWGQGTQVTVSS | > 1 | > 3 | > 1 | > 3
5 | NKp46-PA22 VHH (his and c-Myc labels) (VHH, IPTG-induced E. coli supernatant used in the screening ELISA; also called NKp46-PA22 clone supernatant; not shown: his and c-Myc labels) VHH: QVQLVESGGGLVQAGGSLRLSCTASGRTFETLHWFRQAPGKEREFVARIWWIGGATFYADSVKGRFTISRDNAKNMVYLQMNSLKPEDTAIYYCAADARYTSNRRWESDYWGQGTQVTVSS | > 1 | > 3 | > 1 | > 3
6 | NKp46-PA34 VHH (his and c-Myc labels) (VHH, IPTG-induced E. coli supernatant used in the screening ELISA; also called NKp46-PA34 clone supernatant; not shown: his and c-Myc labels) VHH: QVQLVESGGGLVQTGGSLRLSCAASGSTSSFYRMGWFRQAPGKEREAVARISSSAGLIYYVDSVKGRFTISRAGAKNTVYLQMNSLKPEDTAVYYCAADRHGTRWDYWGQGTQVTVSS | > 1 | > 3 | > 1 | > 3
7 | NKp46-PA31 VHH (his and c-Myc labels) (VHH, IPTG-induced E. coli supernatant used in the screening ELISA; also called NKp46-PA31 clone supernatant; not shown: his and c-Myc labels) VHH: DVQLVESGGGLVQAGDSLRLSCAVSGRTFSRLPMGWFRQGPGKDREFVAAISWSSSTTYYADSVKGRFFISRDNAKNTAYLQMNNLRLEDTAVYYCAAVGGSLDYSATVVYTAARAYADWGQGTLVTVSS | > 1 | > 3 | > 1 | > 3
8 | NKp46-PA2 VHH (his and c-Myc labels) (VHH, IPTG-induced E. coli supernatant used in the screening ELISA; also called NKp46-PA2 clone supernatant; not shown: his and c-Myc labels) VHH: DVQLVESGGGLVQAGGSLRLSCAASGRTLSSYAMGWFRQAPGLEREFVAAISRISGDTYSPDSVKGRFTISRDNAKNTLYLQMNSLKPEDTAVYYCAASATPSATNIYTNQYAYGDWGQGTQVTVSS | > 1 | > 3 | > 1 | > 3
9 | NKp46-PA69 VHH (his and c-Myc labels) (VHH, IPTG-induced E. coli supernatant used in the screening ELISA; also called NKp46-PA69 clone supernatant; not shown: his and c-Myc labels) VHH: QVQLVESGGGLIQAGGSLRLSCVASERSLTLYAMGWFRQAPGLEREFVAGISRTGDTTYSPDSVKGRFTISRDNAKNVLYLQMNSLKPDDTAVYYCAASATYSATNIYTHQRAYGDWGQGTQVTVSS | > 1 | > 3 | > 1 | > 3
10 | NKp46-PC2 VHH (his and c-Myc labels) (VHH, IPTG-induced E. coli supernatant used in the screening ELISA; also called NKp46-PC2 clone supernatant; not shown: his and c-Myc labels) VHH: QVQLVESGGGLVQPGGSLRLSCAASGFAFSNYNMFWVRQAPGEGFEWISVINRGGDTADYAASVKGRFTISRDNAKNTLYLQMNSLKTEDTAVYYCARDPLGTTRGQGTLVTVSS | > 1 | > 3 | > 1 | > 3
11 | NKp46-PA63 VHH (his and c-Myc labels) (VHH, not shown: small tags and cut ends, also called NKp46-PA63 clone supernatant) VHH: EVQLVESGGGLVQPGGSLRLSCAASGRTSTSYAMGWFRQAPGKEREFVAAINRSGDFPYYADSVKGRFTIFRDNAKNTVYLQMSSVKPEDTGVYFCAAAPRAPATQVVISAFGYEYWGQGTQVTVSS | > 1 | > 3 | > 1 | > 3
12 | NKp46-PA36 VHH (his and c-Myc labels) (VHH, IPTG-induced E. coli supernatant used in the screening ELISA; also called NKp46-PA36 clone supernatant; not shown: his and c-Myc labels) VHH: QVQLVESGGGLVQAGGSLRLSCAASGRSFSRYAMGWFRQAPGKERDFVAAISSSGDPTYYADSVKGRFTISRVNAKNTVYLQMNSVNPGDTAVYYCAAGLTARDTTVVVHPNGYSYWGQGTQVTVSS | > 1 | > 3 | > 1 | > 3
13 | NKp46-PA45 VHH (his and c-Myc labels) (VHH, IPTG-induced E. coli supernatant used in the screening ELISA; also called NKp46-PA45 clone supernatant; not shown: his and c-Myc labels) VHH: QVQLVESGGGLVQAGGSLRLLCAASGRTFSRLPMAWFRQGPGKDREFVAAISWSGGSTYYADSMKGRFTISRDNAKNTAYLQMNSLRLEDTAVYYCAAVGDSAPYSATIVYTDARAYAYWGQGTQVTVSS | > 1 | > 3 | > 1 | > 3

The remaining lines, values ahead:

Row | OD450 [1] | ratio of OD450 to negative control [1] | OD450 [2] | ratio of OD450 to negative control [2] | Binder
14 | > 1 | > 3 | > 1 | > 3 | NKp46-PC8 VHH (his and c-Myc labels) (VHH, IPTG-induced E. coli supernatant used in the screening ELISA; also called NKp46-PC8 clone supernatant; not shown: his and c-Myc labels) VHH: EVQLVESGGGSVQAGGSLRLSCAVSRGSMASTGCMAWFRQTPGKEREAVAIINISGTTRYTDSVKGRFTIAQDSAKNTLTLQMNSLKPEDTGMYYCAATQNPRTVGRGYCTGDYFQVGGGGYSFWGQGTQVTVSS
15 | > 1 | > 3 | > 1 | > 3 | NKp46-PC7 VHH (his and c-Myc labels) (VHH, IPTG-induced E. coli supernatant used in the screening ELISA; also called NKp46-PC7 clone supernatant; not shown: his and c-Myc labels) VHH: EVQLVESGGGSVQAGGSLRLSCAASGYTYRTDCMGWFRQAPGKEREGLATIYTSDGRTAYADSVKGRFTISQDNAKNTLYLDMNTLKPEDTAMYYCAADLQYGGSCPSGGWKYWGQGTLVTVSS
16 | > 1 | > 3 | > 1 | > 3 | NKp46-PC4 VHH (his and c-Myc labels) (VHH, IPTG-induced E. coli supernatant used in the screening ELISA; also called NKp46-PC4 clone supernatant; not shown: his and c-Myc labels) VHH: EVQLVESGGGSVQAGGSLRLSCTVSGYTGTIEYMGWGWFRQAPGKEREGVAYINTGGGTSVYDDSVKGRFTISKDDVNLTVYLQMNSLKPEDTAIYYCATGSFFGIWYKVPATQYFHYWGQGTQVTVSS
17 | > 1 | > 3 | > 1 | > 3 | NKp46-PC9 VHH (his and c-Myc labels) (VHH, IPTG-induced E. coli supernatant used in the screening ELISA; also called NKp46-PC9 clone supernatant; not shown: his and c-Myc labels) VHH: QVQLVESGGGSVQAGGSLRLSCAASGYTYRRYCMAWFRQGPGKEREGVACLDRDGSTTYADSVKGRFTISRDNANDTLYLQMNSLKPEDTALYRCAAAQPGDCWGRRYGFNTWGQGTLVTVSS
18 | > 1 | > 3 | > 1 | > 3 | NKp46-PC16 VHH (his and c-Myc labels) (VHH, IPTG-induced E. coli supernatant used in the screening ELISA; also called NKp46-PC16 clone supernatant; not shown: his and c-Myc labels) VHH: DVQLVESGGGLVQPGGSLRLSCAISGFTFSIVSMSWVRQAPGKGPERVSWINGDSSNTSYADSVKGRFTISRDNARNMLYLQMNSLKSEDTARYYCTTQNSHYDIRFGYWGQGTQVTVSS
19 | > 1 | > 3 | > 1 | > 3 | NKp46-PC13 VHH (his and c-Myc labels) (VHH, IPTG-induced E. coli supernatant used in the screening ELISA; also called NKp46-PC13 clone supernatant; not shown: his and c-Myc labels) VHH: DVQLVESGGGSVQAGGSLRLSCAASGYTRSIYYMGWFRQAPGKEREGVAVMHTGGGSTYYTDSVKGRFTISQDNAKNTVYLQMNSLKPEDTAMYYCAASKYLLAFGGVEWILRPAGGWDYWAQGTQVTVSS
20 | > 1 | > 3 | > 1 | > 3 | NKp46-PC6 VHH (his and c-Myc labels) (VHH, IPTG-induced E. coli supernatant used in the screening ELISA; also called NKp46-PC6 clone supernatant; not shown: his and c-Myc labels) VHH: DVQLVESGGGSVQAGGSLRLSCAASGYRSRHYCMGWFRQFPGKERERVALINTGGPTTFYADFVEGRFTISLDNAKNTLSLQMNSLKPEDTAMYYCAAGPPSSDSGSGCYVPEYMYNYWGQGTQVTVSS
21 | > 1 | > 3 | > 1 | > 3 | NKp46-PC11 VHH (his and c-Myc labels) (VHH, IPTG-induced E. coli supernatant used in the screening ELISA; also called NKp46-PC11 clone supernatant; not shown: his and c-Myc labels) VHH: DVQLVESGGGSVQAGGSLRLSCAPSPYSANSFSMAWFRQVPGKEREGIACIQAESGSTNVAPSVKGRFSISQDNAKNTLYLQMNNLKPEDTAMYYCAAFKRNVGGCELRPEHWRFWGQGTLVTVSS
22 | > 1 | > 3 | > 1 | > 3 | NKp46-PC12 VHH (his and c-Myc labels) (VHH, IPTG-induced E. coli supernatant used in the screening ELISA; also called NKp46-PC12 clone supernatant; not shown: his and c-Myc labels) VHH: QVQLVESGGGSVQTGGSLRLSCTAPGFTTDSCGMDWYRQAAGKQREWVSRIRPDGRTDYVESVKGRFTISEDKAKYTVYLQMNSLKPEDTAMYSCTTWGLCTAKFRWGQGTQVTVSS
